{"source": "the RNAGym collection of RNA variant scans (doi:10.1093/molbev/msab373)", "parents": {"B1": {"name": "Azoarcus group I ribozyme (parent)", "chain": "GUGCCUUGCGCCGGGAAACCACGCAAGGGAUGGUGUCAAAUUCGGCGAAACCUAAGCGCCCGCCCGGGCGUAUGGCAACGCCGAGCCAAGCUUCGGCGCCUGCGCCGAUGAAGGUGUAGAGACUAGACGGCACCCACCUAAGGCAAACGCUAUGGUGAAGGCAUAGUCCAGGGAGUGGCGAAAGUCACACAAACCGG"}}, "data": [{"variants_of": "B1", "test": "reverse-splicing fitness (ratio to wild type); higher = more active; in vitro selection; Mg2+ level not given", "procedure,_shortened": "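An in vitro group I ribozyme library with randomized positions was T7-transcribed and gel-purified. In triplicate, 10 pmol RNA in EPPS pH 7.5 was reacted with 50 pmoles of a 30-nt RNA substrate for 1 h at 37 °C across several added MgCl2 levels (1–48 mM), then stopped with EDTA. Products were reverse transcribed from a substrate-complementary primer, PCR-amplified and sequenced (HiSeq 4000). Fitness is a variant's read proportion after selection over that before, normalised to wild type.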", "values": [{"variant": "C82A A111G A145G C150U C169U U176A", "reverse-splicing fitness": 0.0138}, {"variant": "C82A A111G A145G C150U C169U U176C", "reverse-splicing fitness": 0.0135}, {"variant": "C82A A111G C150G C169G U176A", "reverse-splicing fitness": 0.00836}, {"variant": "C82A A111G C150G C169G U176C", "reverse-splicing fitness": 0.00543}, {"variant": "C82A A111G C150G C169G U176G", "reverse-splicing fitness": 0.00592}, {"variant": "C82A A111U A120C", "reverse-splicing fitness": 0.0268}, {"variant": "C82A A111U A120C A145C C150U C169A", "reverse-splicing fitness": 0.00907}, {"variant": "C82A A111U A120C A145C C150U C169G", "reverse-splicing fitness": 0.00912}, {"variant": "C82A A111U A120C A145C C150U C169U", "reverse-splicing fitness": 0.0105}, {"variant": "C82A A111U A120C A145G U176C", "reverse-splicing fitness": 0.0361}, {"variant": "C82A A111U A120C A145G U176G", "reverse-splicing fitness": 0.00731}, {"variant": "C82A A111U A120C A145G U176A", "reverse-splicing fitness": 0.0187}, {"variant": "C82A A111G C169U", "reverse-splicing fitness": 0.0132}, {"variant": "C82A A111G C169G", "reverse-splicing fitness": 0.00926}, {"variant": "C82A A111G C169A", "reverse-splicing fitness": 0.00855}, {"variant": "C82A A111U A120C A145G C150G C169A U176A", "reverse-splicing fitness": 0.0164}, {"variant": "C82A A111U A120C A145G C150G C169A U176G", "reverse-splicing fitness": 0.00887}, {"variant": "C82A A111U A120C A145G C150G C169A U176C", "reverse-splicing fitness": 0.016}, {"variant": "C82A A111G A145U C150U U176C", "reverse-splicing fitness": 0.166}, {"variant": "C82A A111G A145U C150U U176G", "reverse-splicing fitness": 0.0305}, {"variant": "C82A A111G A145U C150U U176A", "reverse-splicing fitness": 0.106}, {"variant": "C82A A111U A120C A145C U176G", "reverse-splicing fitness": 0.00578}, {"variant": "C82A A111U A120C A145C U176A", "reverse-splicing fitness": 0.0139}, {"variant": "C82A A111U A120C A145C U176C", "reverse-splicing fitness": 0.0202}, {"variant": "C82A A111U A120C A145C C150U U176A", "reverse-splicing fitness": 0.0118}, {"variant": "C82A A111U A120C A145C C150U U176G", "reverse-splicing fitness": 0.00643}, {"variant": "C82A A111U A120C A145C C150U U176C", "reverse-splicing fitness": 0.0198}, {"variant": "C82A A111G C150U C169A U176A", "reverse-splicing fitness": 0.0185}, {"variant": "C82A A111G C150U C169A U176G", "reverse-splicing fitness": 0.00716}, {"variant": "C82A A111G C150U C169A U176C", "reverse-splicing fitness": 0.0164}, {"variant": "C82A A111G A145U C150A C169A U176A", "reverse-splicing fitness": 0.0124}, {"variant": "C82A A111G A145U C150A C169A U176C", "reverse-splicing fitness": 0.0106}, {"variant": "C82A A111G A145U C150A C169A U176G", "reverse-splicing fitness": 0.00674}, {"variant": "C82A A111U A120C A145U C150G C169U U176A", "reverse-splicing fitness": 0.00711}, {"variant": "C82A A111U A120C A145U C150G C169U U176G", "reverse-splicing fitness": 0.00741}, {"variant": "C82A A111U A120C A145U C150G C169U U176C", "reverse-splicing fitness": 0.0117}, {"variant": "C82A A111G C150A C169U U176C", "reverse-splicing fitness": 0.014}, {"variant": "C82A A111G C150A C169U U176A", "reverse-splicing fitness": 0.0172}, {"variant": "C82A A111G C150A C169U U176G", "reverse-splicing fitness": 0.00815}, {"variant": "C82A A111U A120C A145C C169G U176G", "reverse-splicing fitness": 0.00816}, {"variant": "C82A A111U A120C A145C C169G U176A", "reverse-splicing fitness": 0.0334}, {"variant": "C82A A111U A120C A145C C169G U176C", "reverse-splicing fitness": 0.0325}, {"variant": "C82A A111G A145U C169U U176G", "reverse-splicing fitness": 0.0055}, {"variant": "C82A A111G A145U C169U U176C", "reverse-splicing fitness": 0.0133}, {"variant": "C82A A111G A145U C169U U176A", "reverse-splicing fitness": 0.0124}, {"variant": "C82A A111G A145G C150U U176G", "reverse-splicing fitness": 0.0317}, {"variant": "C82A A111G A145G C150U U176A", "reverse-splicing fitness": 0.115}, {"variant": "C82A A111G A145G C150U U176C", "reverse-splicing fitness": 0.174}, {"variant": "C82A A111U A120C A145G C150U C169A", "reverse-splicing fitness": 0.0113}, {"variant": "C82A A111U A120C A145G C150U C169G", "reverse-splicing fitness": 0.00957}, {"variant": "C82A A111U A120C A145G C150U C169U", "reverse-splicing fitness": 0.0127}, {"variant": "C82A A111G A145U C150G C169G", "reverse-splicing fitness": 0.00749}, {"variant": "C82A A111G A145U C150G C169A", "reverse-splicing fitness": 0.00833}, {"variant": "C82A A111G A145U C150G C169U", "reverse-splicing fitness": 0.00964}, {"variant": "C82A A111G A145G C169A U176C", "reverse-splicing fitness": 0.0253}, {"variant": "C82A A111G A145G C169A U176A", "reverse-splicing fitness": 0.0201}, {"variant": "C82A A111G A145G C169A U176G", "reverse-splicing fitness": 0.00591}, {"variant": "C82A A111U A120C A145C C150A C169A", "reverse-splicing fitness": 0.01}, {"variant": "C82A A111U A120C A145C C150A C169G", "reverse-splicing fitness": 0.00947}, {"variant": "C82A A111U A120C A145C C150A C169U", "reverse-splicing fitness": 0.0111}, {"variant": "C82A A111U A120C A145U C150A C169U", "reverse-splicing fitness": 0.0109}, {"variant": "C82A A111U A120C A145U C150A C169A", "reverse-splicing fitness": 0.0109}, {"variant": "C82A A111U A120C A145U C150A C169G", "reverse-splicing fitness": 0.00953}, {"variant": "C82A A111G A145G C150G C169U U176C", "reverse-splicing fitness": 0.0123}, {"variant": "C82A A111G A145G C150G C169U U176A", "reverse-splicing fitness": 0.0112}, {"variant": "C82A A111G A145G C150G C169U U176G", "reverse-splicing fitness": 0.00825}, {"variant": "C82A A111U A120C A145G C169A U176A", "reverse-splicing fitness": 0.0312}, {"variant": "C82A A111U A120C A145G C169A U176C", "reverse-splicing fitness": 0.0332}, {"variant": "C82A A111U A120C A145G C169A U176G", "reverse-splicing fitness": 0.00699}, {"variant": "C82A A111U A120C A145G C150G C169G", "reverse-splicing fitness": 0.00768}, {"variant": "C82A A111U A120C A145G C150G C169U", "reverse-splicing fitness": 0.0104}, {"variant": "C82A A111U A120C A145G C150G C169A", "reverse-splicing fitness": 0.00936}, {"variant": "C82A A111G A145G C150G C169G U176C", "reverse-splicing fitness": 0.011}, {"variant": "C82A A111G A145G C150G C169G U176G", "reverse-splicing fitness": 0.00597}, {"variant": "C82A A111U A120C A145U C150A C169U U176A", "reverse-splicing fitness": 0.0174}, {"variant": "C82A A111U A120C A145U C150A C169U U176G", "reverse-splicing fitness": 0.00856}, {"variant": "C82A A111U A120C A145U C150A C169U U176C", "reverse-splicing fitness": 0.0133}, {"variant": "C82A A111U", "reverse-splicing fitness": 0.299}, {"variant": "C82A A111U A120C A145G C150A C169U U176A", "reverse-splicing fitness": 0.019}, {"variant": "C82A A111U A120C A145G C150A C169U U176C", "reverse-splicing fitness": 0.0176}, {"variant": "C82A A111U A120C A145G C150A C169U U176G", "reverse-splicing fitness": 0.00879}, {"variant": "C82A A111G A145U C169G", "reverse-splicing fitness": 0.00852}, {"variant": "C82A A111G A145U C169U", "reverse-splicing fitness": 0.0125}, {"variant": "C82A A111G A145U C169A", "reverse-splicing fitness": 0.00788}]}]}
